Results: the DeepSol protein solubility set

experiment: soluble on expression in E. coli; label from the status in PepcDB or PDB records

Soluble on expression in E. coli, not soluble:
MGSDKIHHHHHHMTEKTTAELENLRGLIDGVDSQLLSLLRKRLDLVAQVGTVKHAAGLPIYAPAREAAMLGKRRAEAEAMGVSPQLIEDILRRLMRESYMSEKDVGFKQVNPELGHIVIIGGQGQLGRLFAQMFALSGYEVRLLDKDDWDHADELFDGAGLVLVTVPIATTCSLIRERLDHLPEHCILADLTSVKGAPLKAMLETHKGPVVGLHPMFGPDVGSLAKQVVVVCHGRAPEKYQWLMEQIGIWGARLVEADAGRHDKAMQLVQAMRHFSSFVYGLNLCREQADIDTLLEFSSPIYRLELAMVGRLFAQSGELYADIIFAQEESLTAISDFIDNYRDALELLKTGDRAGFIARFNEVSNWFGNYSQQFLTESRAMLQSVNDMRSV
MGSDKIHHHHHHMTERELEILALLKQDPLIPQQELADRLGISRSAVAGHIMNLTNKGVIRGKGYILAEAKYAMVIGGANMDILGRPASSLRVGDSNPGSVSCSPGGVGRNIAENLARLGSDTRLMTAVGKDAYGQQIVEHCQRAGIDMKPSLQLSDGVTSTYLSVLDGDSDMHVAINDMAILERLGVEQLKSQQEMLKRASLAIIDANLSEAALAYLLSNFADIPLFVDTVSCAKAEKIKPYLGAVHTLKPNLKEAEQLSGISIANYGELPVLANWFHEQGVKRVFLSLGIDGVFYSDGEEQAHIPAIPVEMVNANGAGDAFLAGLAHGFMQGWSTRQSTEFAMAAAVVALSDLATINPNMSEISVNRVIKESLC
MGSDKIHHHHHHMTERNSQDIGIQARFAEAEALGAHVYVLAAPLHNGSLPGALSVRRDHVACMLDGGADVQAVSPHLIYIPPSHFESARGWLERHGPASPCATILASPLPLAALAEHLKSFLRVCLPDGEPIVLAYWDPAILATLVGSAEDETLFVKGPVLSGEQRQAFLAPILRWTYWDRKGALRQIDWRQDRMPASAATLKPPLKLDQGQVDALTEASVPDGLLQHFSEHAPELLADVPERDRYGFVCRQIARARQHGIEGPGAWMDYCALAMRHGEAFDSHPDGVALLRTILPTASDRFSAS
MGSDKIHHHHHHMTFILNSQNVFNYLLEKGLCNQSEQPPAKIEQLTAKNFNLLVTLPGDRKLLVKQERHNPEGKAAGEFLIEWRIQEFLQQFPNLSNYRSFLPEVLHFDVENSIIVFKYFDDYRDLMDFYTKGNSFNIEIATAIGNILGTIHRDTFNRQEYQEFFTKNSDNLMGDQVLHLVRRLERVEPEIFGIVPSDGLKFFALYQRYDSLGQAIAELGNAVTPSCLTHNDLKLNNILLHKDWQDSSNNIVRLIDWERSAWGDPAFDLGTLISSYVQIWLGSLVISNSLSIEESLRLAITPLEVLQPSISTLTQAYLKTFPEILDHRSDFLQRVVQFTGFTLIQQIQAMIQYQKSFGNMGIAMLQVAKTLLSRPVQSMPTIFGAAAVELGHLNNSPV
MGSDKIHHHHHHMTGIALSPIGALWGIVGAKTHGTVEMGAALTHRGCYMAMEEGPTFSFGARHSAEIWPISVDDDIAVVYSGFPFVVDEETRTPRYLSAEDIRTEFLRFGADFFRVLCGHYAIAVYCYTRHRLILVRDAFGVQSLSWASSNENFAFSTEYKALLSLPWVERNLDHDAARGFVDDGWAPAGRTFLRHISMVLPGSILIWQNGNLETIHLRQDLCKTRPPFRPISVRHVEMTVRETIGWQANDFSPRYGVMLSSGVDSAVIAATLRRIRRDSEIHTFTVGYGYDDPEIIGASATASVLGTQHHEIIVRPDALTALLTDTIVAVDNPGGYEEFPCLYALHQEARQFVDIIFSGNAADTLFAGMPYHRDLLSTDDAIYRRLCNDLTVRDERLAAQELLAGRHGLNFRMPYAERILIDLALEIPDFQKLSPENDKIIFREAARQILPDEITMRPKRIQHLLYDDSMCSWLAERIEWICSSSLLRTHSLGELEGAAILPPRNLELTEESFKAAWNVVALATWASIYLA
MGSDKIHHHHHHMTILHSTDFFKAGISTVAIEPRLPQSAFPEHHHDFHEIVIVEQGSGIHVFNGQPYTIGGGSVCFIRDHDRHLYEHTDNLCLTNVLYRAPDAFRFLAGVSQLLPQEQEGNYPSHWRVNQTVLQQVRHIVAQIEAVGSDTDTHAVASREILFMQLLVLLRKSSLAEEATNNDARLNQLLAWLEDHFAQEICWEEVAAQFSLSLRTLHRQLKQQTGLTPQRYLNRVRLMKARHLLRHSDESVTDIAYRCGFGDSNHFSTLFRREFDWSPRDIRQGRDAILQ
MGSDKIHHHHHHMTINDLQAFVMVYDLRHISNAAVELHLSQSELSKRMRALENELNIKLLDTHNKRRLQITPAGETFYHHAHKMITDYETMMHDLAPNRPTTFAKLIIGAIPISGQYNIAKKIATFDTQHPDTEIKIIEDEGDQIVKRLLSGELQAAIIRDTQTTQLQPTEFQKQPLLADELKIILPRDHPLATQPVIRIQDLARQKIATLPPGSGVYEPINALFAQQGMTPQFFFESTHIETLLGILNQNNVTFLFKQSVLPFMTEHVVMRSLAIPFISQLNFVYPQRTGNQLLTDLIDYLTVTAQENQQV
MGSDKIHHHHHHMTIYTLSHGSLKLDVSDQGGVIEGFWRDTTPLLRPGKKSGVATDASCFPLVPFANRVSGNRFVWQGREYQLQPNVEWDAHYLHGDGWLGEWQCVSHSDDSLCLVYEHRSGVYHYRVSQAFHLTADTLTVTLSVTNQGAETLPFGTGWHPYFPLSPQTRIQAQASGYWLEREQWLAGEFCEQLPQELDFNQPAPLPRQWVNNGFAGWNGQARIEQPQEGYAIIMETTPPAPCYFIFVSDPAFDKGYAFDFFCLEPMSHAPDDHHRPEGGDLIALAPGESTTSEMSLRVEWL
MGSDKIHHHHHHMTKHNKAYKFRLYPTGDQAHLMRKTFGCVRFVYNRMLAERKEAYEKHKDDKEQLKKQKLPTPAKYKAEFEWLKEVDSLALANAQLNLQTAYKNFFRGQNDFPTFKSKKDRKSYTTNVVNGNIMLLNGHIKLPKLKMVRIKQHREIPQDHVIKSCTISMTPTGKYYVSILTEYEKEIVQNEVETVVGLDFAMDRLYVSSEDERANYPKFYREMLDRLAKAQRVLSRRTKGSIRWNKQRIRVAKLHEKVANQRKNFLHHKSKELATHFDVVAIEDLNMKGMSQALHFGKSVADNAWGMFTSFLAYKLHEQGKQLMKIDKWFPSTKTCSSCGNVKNMSLSERVYSCICGVNLDRDYNAAINIKNEAIRLLALA
MGSDKIHHHHHHMTKKILFCATVDYHFKAFHLPYFKWFKQMGWEVHVAANGQTKLPYVDEKFSIPIRRSPFDPQNLAVYRQLKKVIDTYEYDIVHCHTPVGGVLARLAARQARRHGTKVLYTAHGFHFCKGAPMKNWLLYYPVEKWLSAYTDCLITINEEDYIRAKGLQRPGGRTQKIHGIGVNTERFRPVSPIEQQRLREKHGFREDDFILVYPAELNLNKNQKQLIEAAALLKEKIPSLRLVFAGEGAMEHTYQTLAEKLGASAHVCFYGFCSDIHELIQLADVSVASSIREGLGMNVLEGMAAEQPAIATDNRGHREIIRDGENGFLIKIGDSAAFARRIEQLYHKPELCRKLGQEGRKTALRFSEARTVEEMADIYSAYMDMDTKEKSV
MGSDKIHHHHHHMTKNKLNQNSYELEKVKERIEQILSQFFPEQIMKDLPLYGKMLRVRLSILSFKNRGVEIGEDAISSLAALELVHLASLLHDDVIDGARFRRGKETINFMYGDKAAVAAGDLVLVSAFHTVEEIGNNKLRRAFLNVIGKMSEAELIEQLSRYKPITKEEYLRIVEGKSGALFGLALQLPALLEGELGEDLYNLGVTIGTIYQMFDDIMDFAGMEKIGKDGFLDLKNGVASFPLVTAMEKFPEARQMFENRDWSGLMSFMREKGILKECEETLKVLVKNVIIENSWLRDFVDGIFKIKISS
MGSDKIHHHHHHMTKNNEAGWNLDNSYATLPHSFYTEIPPTPVSSPELVKLNHSLAISLGFNPEELKKETEIAIFAGNALPEGAHPLAQAYAGHQFGHFNMLGDGRALLIGEQITPSGKRFDIQLKGSGPTPYSRRGDGRAALGPMLREYIISEAMYALDIPTTRSLAVVTTGEPTYRETKLPGAILTRVASSHIRVGTFQYAAARGSIEDLQSLADYTIKRHYPEIEDPENRYTALLQEVIKKQASLIAKWQLVGFIHGVMNTDNITISGETIDYGPCAFMDHYDQGTVFSSIDTQGRYAYGNQPYMAAWDLARLAESLIPILHEDEEEALKIAQDEISKFSVQYENLWFLGMKKKLGLFSNEEQDHSLIEQLLKMMEKYKADYTNTFRSLTLNTLENTPLFDSSEFKEWYKLWQSRLERQDESKENAYEMMKNNNPSIIPRNHRVEEALEAAVTNGDYSVMEKLLEALANPYAYATDQEEYCVTPAPTNRPYRTFCGT
MGSDKIHHHHHHMTLALGRLDSITLLLPDPELFLYSYVRREAVLSSQIEGTQSTLTQLMLFELEESPGVPFDDVVEVSNYVAALDHGVARLKEGFPLSNRLIREMHTVLLFRGRGSNKGPGEFRRSQNWIGGTRPGNALFVPPPPHLVPQCMADLERFLHDENNPYPSVLKAALAHVQFETIHPFLDGNGRIGRLLIAFILHHDGILSRPLLYLSLYFKRHRETYYRLLDRVRTEGDWEAWTDFFLEGVRETAGNAVDTARRLIALFEADQQKIQSLGRSASSTLQVFQAFKERPLLTVGRISERTGLSFPAANQAVGRMEKKLGIVREITGRRRERAYAYDQYVAILNEGAEE
MGSDKIHHHHHHMTLPISVFIITKNEEKHIAKTLASVKDMDEVILVDSGSTDKTLSIAQQFGATIFSHEWQGYAKQKQYAMSLCRNEWVLNLDGDEAINPQLIAAFKEIIEQDKADSVRFWRNDIFIGKPLSSLSKKPNNHRLYKKSKSFFDDSRLAHESATVDGKEIFINQVFDHYGYDSIAAITNKNNTYSTLKADEKFVKGKSFSHLKLFLIFPLVFIKEYLLQRKLFSGRRGFILAVMEAYYAFLKEAKLFENHQNKPN
MGSDKIHHHHHHMTMDAATAVSDQGKQDLPAGDGATLSLKDRIARDLGQRILAGIYAQHAVLPTEAELCVIYGASRTALRDALLTLSAKGLIEARKRAGTRVRVSSEWNRLDAQVLEWMRDIEPDLDFVRGLIEARLVIEPAAAQLAAKMATSGDLAVIEAAYEAMRIAPEDDLAACLDADVRFHTAILRASRNPVFANLGNMLAAALSFSFRLTTSATANYQQTLSAHGDVLEAIRMRRVDDAHDQMKALIGIASNDLLAVARKGRHQQPVPTASADPI
MGSDKIHHHHHHMTNDAIVIGSGIGGLVTATQLAAKGAKVLVLERYLIPGGSAGYFERQGYRFDVGASMIFGLGQNGTTNLLTRALTAVNVSQDAIADPVQIHYHLPQGLDLKVDRVYEKFLQNLIAHFPHEEKGIRRFYDECQKVFKCLNSMDLLSLEEPWYLLRVFFQHPLACLGLVKYLPQNAGDFARRYIKDPKLLKFIDMECYCWSVVPSDMTPMINAGMVFSDRHYGGVNYPKGGVGQIAQKLVEGLEKAGGKIQYKARVTKILTEKGKAVGVQLANGKVYRGKRIVSNATRWDTFEQLLPAEEMPLNEKKWQQNYQKSPSFLSLHIGVKESVLPVGTECHHILLEGWEKMTAVEGTIFVSIPTLLDPDLAPSGYHIIHAFTPHWIDDWQELSPSEYKAKKEEAAGRIIDRLEKIFPGLDAGLDYLEVGTPRTHRRFLGRQDGSYGPIPRRKLRGLLKMPFNRTAIPGLYCVGDSTFPGQGLNAVAFSGFACAHRIAVDLGF
